Measured values taken from PMC7340258, “Induced DNA bending by unique dimerization of HigA antitoxin” (IUCrJ, 2020).

T1: MtHigA3 (Mycobacterium tuberculosis H37Rv, UniProt O53333 1-109)
T1 sequence: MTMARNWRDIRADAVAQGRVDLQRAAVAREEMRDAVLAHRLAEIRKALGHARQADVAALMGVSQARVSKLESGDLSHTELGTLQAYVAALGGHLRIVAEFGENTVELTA

B1: M. tuberculosis HigA3 antitoxin (natural protein)
chain: T1 sequence
notes: also called MtHigA3
B2: DNA4 (DNA-4, palindrome around -10 box) (dsDNA)
DNA 1: AGATATAACCTAGAGGTTATACTG
DNA 2: CAGTATAACCTCTAGGTTATATCT
B3: DNA1 (DNA-1, -35 box) (dsDNA)
DNA 1: CCGACGATGACCGCGCAC
DNA 2: GTGCGCGGTCATCGTCGG

Columns and labels:
[1] = biological target: the molecule itself; assay: SEC; Superdex 75 (10/300GL), 20 mM citric acid pH 5.0, 150 mM NaCl, 2 mM β-mercaptoethanol; single peak at 26 kDa
MtHigA3 = biological target: T1, MtHigA3; assay: EMSA; 0.1-0.6 uM protein, 0.01 uM DNA; conditions: protein: recombinant; tags: C-terminal […]; chain copies: 2; blunt

Row | Binder | stoichiometry N [1] | binding result (MtHigA3)
1 | B1 | 2 | 
2 | B2 |  | no binding
3 | B3 |  | no binding
